Here are results for 3 proteins from publication PMC5081055, “Molecular basis of classic galactosemia from the structure of human galactose 1-phosphate uridylyltransferase” (Human Molecular Genetics, 2016).

Data set [1] concerns the molecule itself. The data set can be described thus: crystal structure; hGALT 20 mg/ml pre-incubated with 5 mM UDP-Glc; vapour diffusion at 20 °C, 0.2 M ammonium sulphate, 30% PEG 8000; two chains in the asymmetric unit; dimer interactions analysed with PISA.
Data set [2] deals with the molecule itself. The data set can be described thus: small angle X-ray scattering (SAXS); HPLC-SAXS at 10 mg/ml in 10 mM HEPES pH 7.5, 150 mM NaCl, 0.5 mM TCEP; ab initio envelopes by GASBOR.

Where a chain is given by its changes, count along the chain named. Names may count otherwise.

B1: uridylylated human galactose 1-phosphate uridylyltransferase (UMP-hGALT) (enzyme, UniProt P07902 1-379, looked up)
chain: MSRSGTDPQQRQQASEADAAAATFRANDHQHIRYNPLQDEWVLVSAHRMKRPWQGQVEPQLLKTVPRHDPLNPLCPGAIRANGEVNPQYDSTFLFDNDFPALQPDAPSPGPSDHPLFQAKSARGVCKVMCFHPWSDVTLPLMSVPEIRAVVDAWASVTEELGAQYPWVQIFENKGAMMGCSNPHPHCQVWASSFLPDIAQREERSQQAYKSQHGEPLLMEYSRQELLRKERLVLTSEHWLVLVPFWATWPYQTLLLPRRHVRRLPELTPAERDDLASIMKKLLTKYDNLFETSFPYSMGWHGAPTGSEAGANWDHWQLHAHYYPPLLRSATVRKFMVGYEMLAQAQRDLTPEQAAERLRALPEVHYHLGQKDRETATIA
modifications: UMP covalently bound to His186 (uridylylated)
notes: human galactose 1-phosphate uridylyltransferase (GALT, EC 2.7.7.12), full length, from a cDNA clone with the p.Asn314Asp polymorphism; Crystallised after pre-incubation with 5 mM UDP-Glc; for SAXS made by overnight incubation with 2 mM UDP-glucose; also called UMP-GALT; uridylylated hGALT; source: incubated with UDP-glucose; not shown: His6, N-terminal, cleaved
As for B1, the “stoichiometry N” value in data set [1] came to 2.

B2: apo human galactose 1-phosphate uridylyltransferase (apo-hGALT) (enzyme, UniProt P07902 1-379, looked up)
chain: B1 chain
notes: human galactose 1-phosphate uridylyltransferase (GALT, EC 2.7.7.12), full length, from a cDNA clone with the p.Asn314Asp polymorphism; De-uridylylated form made by overnight incubation with 2 mM glucose 1-phosphate; source: incubated with glucose 1-phosphate; not shown: His6, N-terminal, cleaved
Turning to B2, the “stoichiometry N” value in data set [2] was found to be 2.

B3: human galactose 1-phosphate uridylyltransferase variant p.Gln188Arg, hGALT(p.Q188R) (enzyme, UniProt P07902 1-379, looked up)
chain: B1 chain with Q188R
notes: As purified only the apo enzyme was seen by mass spectrometry; not shown: His6, N-terminal, cleaved
For the protein B3, the “stoichiometry N” value in data set [2] worked out at 2.

Usually stoichiometry N stands for a count of units in the complex or per binding partner.
